In the DeepSol protein solubility set:

Experiment: soluble on expression in E. coli; label from the status in PepcDB or PDB records

| Sequence | soluble on expression in E. coli |
| --- | --- |
| MNRLAHHQGIYKFFFTLGLTLQLSKPVIKHLIHIVDALTTKGFSGTLTDIHHWSFHPNHRTTLSHFFTKSPWNEERLLGKLQEWILRRIERKNQPLFVSIDDTICQKTKPSSRATHAIEGCDWHYSHKDHQSVWGHSLVWLMVHTFTQAFPFAFRLYDKKAGRSKIDLAIEMLSSIKVKLTQPVYVLMDSWYPSKTLIEACLKQGFHVIAMLKTNRILYPKGIAIQAKQFARYIEPKDTRLVTVGQERYRVYRYEGAIHGLDDAVVLLAWKADQPMTPEHLHCVLSTDRGLGDEDILRYYAQRWTIECFFRQAKDQLKLDGYRVRHVRAVKRYWAVVLLASVYSIAESRQTLSAGLELLRSRKDHSVVEFIYDAAKQGIPIDVIKKQLRIA | not soluble |
| MNRLDQLGIRINLICNVFDKWIGQQDLNYNLFTVLYTLATEGSRTQKHIGEEWSLPKQTVSGVCKTLAGQGLIEWQEGEQDRRERLLSLTEKGKVHAAPLTENAQEFSDKVFSTFGDKRTTRLFADLDALAEVMEKTISENKK | not soluble |
| MNRMRRSTAFSEHVTFHTVMAKRGTGSKLDREVEIQFTNLQLIGTGSFGAVYKAVLRENDEPIAIKKIKVDDRFKSRELTIMHEMDHPNIIRLLYYYVMQQENCLNFVMEFMPKDLAYVHRQFAHNDKQMPAYSIKLYMFQLLRGIGFLHLHNIVHRDIKPKNLLVDESNGILKICDFGSAKRLEKNEPNITYICSRYYRAPELIFGSKNYDTSIDTWSVGTVVGELLHNSPIFLADSAVDILALQIKAFGTPSKEDMAKWNYEYVHIPYDTITGVGIQKFIGRKLSLSTLELLNSLMKMDPKLRIKPYEALTLPYFDDLRDPHYKLPSGAPIPPLFDWLEREYIANHEIIKDIFPRSEEGDKVECL | not soluble |
| MNRRVPKSKSWKTRLSAGGANRTSLHGQMSRYPEVAEDYLIMQPSIRRSSGSDLMPVARFNNFKRWNSCLQHVESQPEDIREWDPPPPSSHCPQIYHKSQYSRRERSPDILTDDRGRPIPRRGMFLNAKYSEAARPPIDEDRIRHTEDVIKRMLYKGRRKESMGYYPNRNHLMRDQIRQTVYNLGVPNGYRAPEQDHFEDDYDDQPGPSNRHYGVSSHPEYYREDRWRLAEGDYEVDKGDGSRQLNKEKYLKKRRKQMIERESVDSEISEEEEEEEIYNKQTKRRRSQKTPIQHNKNRTESRLHQKEKSSSDEEVHEKSTSSRHSNVSRSSKSPYLNDDRAPSRGSKCTSSHHSTPKLLTPSPQYLKDSDDDDNWKNSIPFMSSSDGAGAGMRVRIGSAIASLPLRDDSKNSYSEVALMLLERSVKNLKNPQKMLIKEKPQTRIMNMSTSWAQQDPKKRNENDDDEIVPETEKAETSLMHDLSRIQHPQNATTVQMDQTLFTNSKLMKIDVAIAKNWLDTKMKKTLIPPPLFRSSPISEDVFKSSDRITMPSTIKGPESTAVGNRISSDGEEEDFATKQFDIDDYIARGASKIDFSKTITAPNTSFQEPSTSLFKDPTFFRQESKGNEMNIESFSERTPSKNRTSQQMEFQISTSSISKTKTNASLDSIHRRKSKPQPMLEFDAETQKMFDDAFQSDKKSTKEKYPF | not soluble |
| MNRSALDFRHFVDHLRRQGDLVDVHTEVDANLEIGAITRRVYERRAPAPLFHNIRDSLPGARVLGAPAGLRADRARAHSRLALHFGLPEHSGPRDIVAMLRAAMRAEPIAPRRLERGPVQENVWLGEQVDLTRFPVPLLHEQDGGRYFGTYGFHVVQTPDGSWDSWSVGRLMLVDRNTLAGPTIPTQHIGIIREQWRRLGKPTPWAMALGAPPAALAAAGMPLPEGVSEAGYVGALVGEPVEVVRTQTNGLWVPANTEIVLEGEISLDETALEGPMGEYHGYSFPIGKPQPLFHVHALSFRDQPILPICVAGTPPEENHTIWGTMISAQLLDVAQNAGLPVDMVWCSYEAATCWAVLSIDVQRLAALGTDAAAFAARVAETVFGSHAGHLVPKLILVGNDIDVTEIDQVVWALATRAHPLHDHFAFPQIRDFPMVPYLDAEDKARGSGGRLVINCLYPEQFAGQMRAATASFRHAYPTALRRRVEERWSDYGFGDALEHHHHHH | not soluble |
| MNRSRDKVRCALNHQNAGSIPVDFGSTAVTGIHCRIVEALRNYYGLAPRPVKIVDAFQMLGEIDAELAEKIGVDCIGIGGPKDIFDLDTTRMHEQTTPWGQRVLVPEAMDLTPDMRGDVYVYAGGDQNYPPSAVMPKGCYFINAIERQQPIEEDRLDPEDNVEEFGLLTENDLAYYCAEADKAYQTGRAVVASFGGTALGDVAFVPGMGLKQPKGIRSVVEWYMSTAMRQDYLHQVFEKEIDIAIANYEKLWAALGDKIDVVLTCGTDFGSQESQFCSIDTFRELWLPHYRRMNDWIHQHTTWKIFKHSCGAIIPILPGLIEAGFDIINPVQINAKDMDSRRLKEEFGSQLTFWGGGVDTQKILPFGTPDEIRRHVMGQCEILGRDGGFVFNAVHNVQANVPVDNVVAMFDALKDISLEHHHHHH | not soluble |
| MNRWEGLDEFVAVAETGQFTAAAERMGVSSSHISRQVARLEERLQTRLLYRSTRRVSLSEAGQTFLQHCQRLQDARDEALRAVSDLSAEPKGLLRMTCAVAYGERFIVPLVNAFMADYPQLRVDIELSNRQLDLLHEGFDLAIRLGRLSDSRLVATRLAPRVMYLCATPEYLRRHGTPQSPAELGQFNCLIGSSDLWSFLEDGRETQHRVQGNWRCNSGQAVLDAALRGFGLCQLPDYYVIEHLRSGRLASLLEGHQPPNTAVWALYPQQRHLSPKVRQLVDYLKEGLAQSHPGLAGEKNLR | not soluble |
| MNRWQGIIKQYKKYLPVDENTPIVTLYEGNTPLIEADNLARAIGFKGKIYLKYEGLNPTGSFKDRGMTLAISKAVEAGKRAVICASTGNTSASAAAYAARAGLRAYVLLPKGAVAIGKLSQAMIYGAKVLAIQGTFDDALNIVRKIGENFPVEIVNSVNPYRIEGQKTAAFEICDTLGEAPDYHFIPVGNAGNITAYWKGFKIYYEEGKITKLPRMMGWQAEGAAPIVKGYPIKNPQTIATAIKIGNPYSWKSALKAAQESGGKIDAVSDSEILYAYKLIASTEGVFCEPASAASVAGLIKLVREGFFKGGEVVTCTLTGNGLKDPDTAIKVCEEPITVPPDFDEVVKVLGF | soluble |
| MNSAKKEFEISHIFTDVSKLENGNFLLSPEEDHFNVPWDLQLYREDDHLDVYLRCTKLTENDEICAIDTEFELTLKTSNGKQMSRRVKVDFTLENIMIPAWRWSKVVSWETLLKEYLIDDSIIVEAAVMIKAMTGIPRMKLRSFEKSAQEYSDAIIAIGDEKFYVLKKFLAAHSTYFKDLLFGDFDFEQAENSEITLSDINSTDFQCLLEVLYGEPAIDEENIDGILKLAQKYNMPLRFGDVKSS | not soluble |
| MNSDLALLRLLQLASPGLPVGGFTYSQGLEWAVEAGWVRGVDSFAGWQREQVHDTLACLDWPVLARLYHACQAKDAEAFGHWSRFLLANRETAELRLEEQQRGAALARLLDGWQLGQAPAWRASLELTQLGGMAWLAAHWAIPLRQLALGHGFAWLEGAVMAGVKLVPFGQQAAQTLLRDLGADLPAALDQALALGDDQLGGGLPLLAIASSRHETQYTRLFRSLEHHHHHH | soluble |
| MNSFVLMATVIREPELRFTKENQTPVCEFLVEFPGMRDDSPKESLKVVGWGNLANTIKETYHPGDRLIIEGRLGMNMIERQEGFKEKRAELTASRISLVDSGNGINPGELSSPPEPEAVDLSNTDDIPFLEHHHHHH | soluble |
| MNSLILGAARRFVGLHLRVSVNLLQNESFSSYSFSSASAADVSPKGETFKSSSFLDSLRLATKLTDKGNSDSVLDLLRSYGFTDSQISSIIRSDSRVLIDNDATSLGSKLQFLQSRGASSSELTEVVSTVPKILGKREGKSLSRYYDFIKVIIEADKSSKYEKISHSLAQGNKIRNILVLRELGVPQKRLLLLLISKSQPVCGKEKFDASLKKVVEMGFDPTTSTFVHALHMLYQMSDKTIEEKIRVYRSVGFSVDDVWAMFKKWPRSLTHSEKKVANSIETFLGLGFSRDVFMMMFKRFPPCIGYSTEAVKKKTEFLVKEMNWPVKAVASIPQVLGYSLEKRTVPRCNVIKVLMSKGLLESELPPMSSVLTSTSESFLNLYVSKHDDKQLVAELMAIFTGNRVSLTDQKARLEQ | soluble |
